Patent US10314894B2, “Treatment of cardio-renal disease using PCSK6” (THE CLEVELAND CLINIC FOUNDATION, priority 2014, dated 2019)

Target: T1, corin mutant R539C (Homo sapiens, UniProt Q9Y5Q5, R539C)
T1 construct: expressed in transfected cells; host or cells: HEK293
T1 sequence (Q9Y5Q5 1-1042 R539C): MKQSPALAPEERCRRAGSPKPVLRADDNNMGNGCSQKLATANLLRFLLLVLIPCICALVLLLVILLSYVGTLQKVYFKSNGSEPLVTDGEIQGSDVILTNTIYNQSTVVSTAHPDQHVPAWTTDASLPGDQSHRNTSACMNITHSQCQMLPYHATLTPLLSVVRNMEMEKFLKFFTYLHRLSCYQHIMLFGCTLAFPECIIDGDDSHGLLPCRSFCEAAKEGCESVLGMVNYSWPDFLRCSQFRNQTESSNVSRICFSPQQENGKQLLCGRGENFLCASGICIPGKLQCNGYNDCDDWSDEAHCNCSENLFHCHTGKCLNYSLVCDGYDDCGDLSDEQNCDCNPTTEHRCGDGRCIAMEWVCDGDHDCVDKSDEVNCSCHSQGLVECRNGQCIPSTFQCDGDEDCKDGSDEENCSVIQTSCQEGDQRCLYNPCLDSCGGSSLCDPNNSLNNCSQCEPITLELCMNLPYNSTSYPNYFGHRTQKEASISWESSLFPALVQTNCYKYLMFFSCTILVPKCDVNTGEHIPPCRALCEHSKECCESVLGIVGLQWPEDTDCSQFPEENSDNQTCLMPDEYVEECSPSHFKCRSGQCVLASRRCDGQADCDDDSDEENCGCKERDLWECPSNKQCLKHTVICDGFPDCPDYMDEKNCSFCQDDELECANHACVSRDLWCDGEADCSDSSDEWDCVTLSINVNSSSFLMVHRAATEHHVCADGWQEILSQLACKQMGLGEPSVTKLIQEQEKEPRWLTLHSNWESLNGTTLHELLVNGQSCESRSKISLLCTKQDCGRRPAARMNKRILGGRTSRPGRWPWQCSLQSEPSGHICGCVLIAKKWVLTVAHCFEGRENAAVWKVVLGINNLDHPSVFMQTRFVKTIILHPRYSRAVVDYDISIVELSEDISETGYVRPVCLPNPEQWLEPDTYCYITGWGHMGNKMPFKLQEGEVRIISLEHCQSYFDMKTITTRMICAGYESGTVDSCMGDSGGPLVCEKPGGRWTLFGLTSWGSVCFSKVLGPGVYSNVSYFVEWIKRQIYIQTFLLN
Assay: PCSK6-mediated corin activation in HEK293 cells, corin mutant R539C
Format: cell-based
Conditions: Western, densitometry
Excerpt: Plasmids expressing human corin WT and mutants R801A, S985A, T555I, Q568P, T555I/Q568P, K317E, S472G and R539C were reported previously. Dong, N. et al., J Biol Chem 289, 17909-17916 (2014); Knappe et al., J Biol Chem 278, 52363-52370 (2003); Wu et al., J Biol Chem 277, 16900-16905. (2002). Plasmids expressing human PCSK1-9 were made by cloning respective cDNAs into pcNDA3.1 vector. Recombinant corin and PCSK proteins encoded by these plasmids contained a C-terminal V5 or flag tag for protein detection in Western blotting.
HEK293 and HL-1 cells were transfected with corin or PCSK6 expression plasmids. After 48-72 h, cells were lysed in a buffer containing 25 mM Tris-HCl, pH 7.4, 150 mM NaCl, 1 mM EDTA, 1% (v/v) NP-40, and 1% (v/v) protease inhibitor cocktail. Recombinant corin and PCSK6 proteins were immunoprecipitated with an anti-V5 or anti-flag antibody. Western blotting was carried out to analyze corin expression and activation or PCSK6 expression with or without reducing agents. Percentage of corin activation (corin-p vs. corin fragments) was quantified by densitometric analysis of Western blots.

B1: proprotein convertase subtilisin/kexin-6 (protein, listed as Homo sapiens)
chain: MPPRAPPAPGPRPPPRAAAATDTAAGAGGAGGAGGAGGPGFRPLAPRPWRWLLLLALPAACSAPPPRPVYTNHWAVQVLGGPAEADRVAAAHGYLNLGQIGNLEDYYHFYHSKTFKRSTLSSRGPHTFLRMDPQVKWLQQQEVKRRVKRQVRSDPQALYFNDPIWSNMWYLHCGDKNSRCRSEMNVQAAWKRGYTGKNVVVTILDDGIERNHPDLAPNYDSYASYDVNGNDYDPSPRYDASNENKHGTRCAGEVAASANNSYCIVGIAYNAKIGGIRMLDGDVTDVVEAKSLGIRPNYIDIYSASWGPDDDGKTVDGPGRLAKQAFEYGIKKGRQGLGSIFVWASGNGGREGDYCSCDGYTNSIYTISVSSATENGYKPWYLEECASTLATTYSSGAFYERKIVTTDLRQRCTDGHTGTSVSAPMVAGIIALALEANSQLTWRDVQHLLVKTSRPAHLKASDWKVNGAGHKVSHFYGFGLVDAEALVVEAKKWTAVPSQHMCVAASDKRPRSIPLVQVLRTTALTSACAEHSDQRVVYLEHVVVRTSISHPRRGDLQIYLVSPSGTKSQLLAKRLLDLSNEGFTNWEFMTVHCWGEKAEGQWTLEIQDLPSQVRNPEKQGKLKEWSLILYGTAEHPYHTFSAHQSRSRMLELSAPELEPPKAALSPSQVEVPEDEEDYTAQSTPGSANILQTSVCHPECGDKGCDGPNADQCLNCVHFSLGSVKTSRKCVSVCPLGYFGDTAARRCRRCHKGCETCSSRAATQCLSCRRGFYHHQEMNTCVTLCPAGFYADESQKNCLKCHPSCKKCVDEPEKCTVCKEGFSLARGSCIPDCEPGTYFDSELIRCGECHHTCGTCVGPGREECIHCAKNFHFHDWKCVPACGEGFYPEEMPGLPHKVCRRCDENCLSCAGSSRNCSRCKTGFTQLGTSCITNHTCSNADETFCEMVKSNRLCERKLFIQFCCRTCLLAG
modifications: C-terminal FLAG tag
reduction in PCSK6-mediated corin activation compared with WT corin: 62%
